Results from patent US20250171542A1 (ADEPT THERAPEUTICS, published 2025).
Changes are numbered by the printed parent chain. Blank lines part the entries; values can stand above or below the binder they belong to.

What was measured:
[1] = molecular target: T1, human PD-L1 expressed on cell surface (human, UniProt Q9NZQ7 19-290); experiment: cell-based or functional assay
[2] = molecular target: T2, BH-H2 (Sino Biological, Cat #11559-H08H) (UniProt O75144 19-258); experiment: ELISA
T2 sequence (looked up): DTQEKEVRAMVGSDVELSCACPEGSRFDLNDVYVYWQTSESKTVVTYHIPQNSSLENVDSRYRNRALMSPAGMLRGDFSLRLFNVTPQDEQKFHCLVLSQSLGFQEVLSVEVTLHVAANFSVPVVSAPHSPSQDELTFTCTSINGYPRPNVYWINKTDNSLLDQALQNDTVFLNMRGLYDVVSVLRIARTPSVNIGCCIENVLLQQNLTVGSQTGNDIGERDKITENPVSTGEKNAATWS

[3] = molecular target: T3, human PD-L1-mFc fusion protein (Sino Biological, Cat #10084-H05H) (human, UniProt Q9NZQ7 19-239); experiment: competition ELISA, coated human PD-L1-mFc, competitor human PD-1-His-hFc-Biotin
T3 construct: Bought protein; also called human PD-L1 mouse Fc fusion protein; not shown: mouse Fc
Procedure: Briefly, microplates were precoated with […] of human PD-L1-mFc fusion protein (Sino Biological, Cat #10084-H05H) diluted in 1×PBS (GIBCO) and incubated overnight at 4° C.; Plates were washed four times with 300 μl/well washing buffer (1×PBST, diluted from 20×PBST (Thermo Scientific) with distilled water)) and then blocked with 300 μl/well of blocking buffer (1×PBST/3% BSA) for 2 hours at RT on shaker (100 rpm). […] Plates were washed and added with 100 μl/well TMB substrate for color development at room temperature in dark for up to 10 minutes. After addition of 50 μl/well of stop solution (1N H₂SO₄), plates were read at 450 nm on a plate reader (SpectraMax M5).

[4] = molecular target: T4, human PD-L1-His (Sino Biological, Cat #10084-H08H) (human, UniProt Q9NZQ7 19-238); experiment: BLI (Gator), antibody on HFC probe, human PD-L1-His in solution
T4 construct: Bought protein; also called human PD-L1 ECD-His; recombinant human PD-L1-His protein; not shown: His tag
Procedure: The affinity of the binding of the exemplary anti-PD-L1 antibodies of the present disclosure was determined. Assay was performed according to the protocol recommended by Gator or Gator Plus (Gator Bio Inc.). Briefly, human PD-L1-His (Sino Biological, Cat #10084-H08H) was serially diluted 4-fold, starting at 4 μg/ml. After three times of regeneration in generation buffer (Gator Bio, Cat #120012) and neutralization of HFC probe (Gator Bio, Cat #160003), 1 μg/ml of antibody to be tested in Q buffer (Gator Bio, Cat #120010) was immobilized onto HFC probe. After a baseline step, probe immobilized with antibody was dipped into antigen solutions. The association and dissociation of antigen from antibody was measured on BLI machine Gator. Affinity was calculated using Gator Bio analysis software.
Table 22 below summarizes the binding affinity to human PD-L1 using Gator.

[5] = molecular target: T5, cynomolgus PD-L1-His (Sino Biological, Cat. 90251-C08H) (cynomolgus, UniProt Q9NZQ7 19-238 (human entry)); experiment: ELISA, coated cyno PD-L1-His
T5 construct: Bought protein; also called Cyno PD-L1; Cynomolgus PD-L1 ECD-His; not shown: His tag
Procedure: Briefly, Maxisorp plates (Nunc) were coated with 100 ul/well of 0.5 μg/ml human PD-L1-His (Sino Biological, Cat #10084-H08H) or cynomolgus PD-L1-His (Sino Biological, Cat. 90251-C08H) protein diluted in 1×PBS (GIBCO) overnight at 4° C. Plates were washed three times with 300 μl/well washing buffer (1×PBST, diluted from 20×PBST (Thermo Scientific) with distilled water)) and then blocked with 300 μl/well of blocking buffer (1×PBST/I % BSA) for 2 hours at RT on shaker (100 rpm). Plates were washed and added with 100 μl/well of testing antibodies, which were serial diluted with assay buffer (PBST/1% BSA). The antibodies were incubated at room temperature for 2 hours on plate shaker at 100 rpm. Plates were washed. One hundred microliter of horseradish peroxidase (HRP) conjugated detection antibody was added into each well and incubated at room temperature for 1 hour on plate shaker at 100 rpm. Plates were washed and added with 100 μl/well TMB substrate for color development at room temperature in dark for up to 10 minutes. After addition of 50 μl/well of stop solution (1N H₂SO₄), plates were read at 450 nm on a plate reader (SpectraMax M5).
Anti-HEL isotype control (Biolntron) was used as negative control.

[6] = molecular target: T1, human PD-L1 expressed on cell surface; experiment: cell-based or functional assay; remark: listed apart in the source

T1 sequence (Q9NZQ7 19-290 limits assumed): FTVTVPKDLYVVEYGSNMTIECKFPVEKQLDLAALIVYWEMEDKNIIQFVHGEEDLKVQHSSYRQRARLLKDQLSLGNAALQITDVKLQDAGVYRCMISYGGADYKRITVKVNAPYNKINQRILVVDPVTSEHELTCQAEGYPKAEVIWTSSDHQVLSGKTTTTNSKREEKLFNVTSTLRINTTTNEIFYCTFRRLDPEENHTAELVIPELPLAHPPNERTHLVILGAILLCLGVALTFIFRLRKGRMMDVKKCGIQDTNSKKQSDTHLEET
T5 sequence (Q9NZQ7 other isoform, or with tags, fused parts or gaps C08H C08H limits assumed): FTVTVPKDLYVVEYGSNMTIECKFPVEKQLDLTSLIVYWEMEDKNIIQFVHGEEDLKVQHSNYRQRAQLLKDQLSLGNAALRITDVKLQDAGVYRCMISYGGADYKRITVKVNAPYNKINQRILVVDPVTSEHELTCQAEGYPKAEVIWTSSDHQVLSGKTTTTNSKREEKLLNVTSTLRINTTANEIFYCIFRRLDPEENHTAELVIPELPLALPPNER
T4 sequence (Q9NZQ7 19-238): as the sequence (Q9NZQ7 other isoform, or with tags, fused parts or gaps C08H C08H limits assumed) above, with T33A, S34A, N62S, Q68R, R82Q, L173F, A185T, I192T, L215H counted along it
T3 sequence (Q9NZQ7 19-239 limits assumed): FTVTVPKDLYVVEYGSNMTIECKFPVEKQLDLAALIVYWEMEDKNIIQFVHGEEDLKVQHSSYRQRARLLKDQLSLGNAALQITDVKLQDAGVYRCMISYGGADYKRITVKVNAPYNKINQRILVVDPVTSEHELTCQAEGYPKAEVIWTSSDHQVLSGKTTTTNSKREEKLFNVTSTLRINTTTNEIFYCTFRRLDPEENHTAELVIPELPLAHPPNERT

Internalization (%), FACS, 0.25 µg/ml, 2 h [1]: 2.2% | Internalization (%), FACS, 0.25 µg/ml, 4 h [1]: -25.9% | Internalization (%), FACS, 0.5 µg/ml, 2 h [1]: 0.4% | Internalization (%), FACS, 0.5 µg/ml, 4 h [1]: 5.6% | Internalization (%), FACS, 1 µg/ml, 2 h [1]: 1.1% | Internalization (%), FACS, 1 µg/ml, 4 h [1]: 7.2% | Internalization (%), FACS, 2 µg/ml, 2 h [1]: 2.4% | Internalization (%), FACS, 2 µg/ml, 4 h [1]: 7.6% | binding result [2]: no binding | IC50 [3]: 7500 pM | Kd [4]: 310 pM | koff [4]: 0.000113 s⁻¹ | kon [4]: 371000 M⁻¹ s⁻¹ | EC50 [5]: 179 pM
B1: 32E2 (antibody, human IgG1, V domains shown)
VH: QEQLEESGGDLVKPEGSLTLTCTASGFSFSSSYYMSWVRQAPGMGLEWIASISGGVTDNAYYASWAKGRFTVSKTSSTTVTLQLTSLTAADTATYFCARDSSSGYFFLLWGPGTLVTVSS
VL: LVMTQTPSSVSAAVGGTVTINCQASQNIYSNLAWYQQKPGQRPKLLIFGASNLRSGVPSRFKGSGSGTEYTLTISDLECADAATYYCQEGYSIGNVDNPFGGGTEVVVK

Internalization (%), FACS, 0.25 µg/ml, 2 h [1]: 19% | Internalization (%), FACS, 0.25 µg/ml, 4 h [1]: 15.3% | Internalization (%), FACS, 0.5 µg/ml, 2 h [1]: 22.5% | Internalization (%), FACS, 0.5 µg/ml, 4 h [1]: 15.7% | Internalization (%), FACS, 1 µg/ml, 2 h [1]: 19.5% | Internalization (%), FACS, 1 µg/ml, 4 h [1]: 18.2% | Internalization (%), FACS, 2 µg/ml, 2 h [1]: 24.1% | Internalization (%), FACS, 2 µg/ml, 4 h [1]: 22% | binding result [2]: no binding | Kd [4]: 360 pM | koff [4]: 0.000238 s⁻¹ | kon [4]: 648000 M⁻¹ s⁻¹ | EC50 [5]: 12.5 pM
B2: 74F4 (antibody, human IgG1, V domains shown)
VH: QEQLEESGGGLVQPEGSLTLTCTASGFSFSGDYYMSWVRQAPGKGLEWIASIYTGSLNTYYATWAKGRFTISLTSSTTVTLQMTSLTAADTATYFCARRNKNADYGHFDLWGPGTLVTVSS
VL: YDMTQTPASVEVAVGGTVTIKCQASQSINDRLAWYQQSPGQPPKLLIYGASTLASGVPSRFKGSGSGTDFTLTISDLECADAATYYCQQGWTVSSLDNAFGGGTEVVAK

Internalization (%), FACS, 0.25 µg/ml, 2 h [1]: 18.2% | Internalization (%), FACS, 0.25 µg/ml, 4 h [1]: 15.9% | Internalization (%), FACS, 0.5 µg/ml, 2 h [1]: 16.2% | Internalization (%), FACS, 0.5 µg/ml, 4 h [1]: 18% | Internalization (%), FACS, 1 µg/ml, 2 h [1]: 15.9% | Internalization (%), FACS, 1 µg/ml, 4 h [1]: 18.2% | Internalization (%), FACS, 2 µg/ml, 2 h [1]: 17.7% | Internalization (%), FACS, 2 µg/ml, 4 h [1]: 21.2% | binding result [2]: no binding | Kd [4]: 9090 pM | koff [4]: 0.00653 s⁻¹ | kon [4]: 718000 M⁻¹ s⁻¹ | EC50 [5]: 17.7 pM
B3: 69D10 (antibody, human IgG1, V domains shown)
VH: B2 VH with Y33W, T54S, I71V
VL: B2 VL with N29G, D30N, R31A, S38K, G49A, A50T, D69E, A80G

IC50 (nM), Promega PD-1/PD-L1 blockade reporter assay [6]: 0.97 nM | Internalization (%), FACS, 0.25 µg/ml, 2 h [1]: 22.9% | Internalization (%), FACS, 0.25 µg/ml, 4 h [1]: 20.6% | Internalization (%), FACS, 0.5 µg/ml, 2 h [1]: 20.8% | Internalization (%), FACS, 0.5 µg/ml, 4 h [1]: 19.9% | Internalization (%), FACS, 1 µg/ml, 2 h [1]: 22.1% | Internalization (%), FACS, 1 µg/ml, 4 h [1]: 17.9% | Internalization (%), FACS, 2 µg/ml, 2 h [1]: 24.2% | Internalization (%), FACS, 2 µg/ml, 4 h [1]: 22.2% | binding result [2]: no binding | Kd [4]: 640 pM | koff [4]: 0.000317 s⁻¹ | kon [4]: 498000 M⁻¹ s⁻¹ | EC50 [5]: 12.6 pM
B4: 55H3/76D6 (antibody, human IgG1, V domains shown)
VH: B2 VH with A24V, I49V, T59S
VL: B2 VL with Q26E, S38K, G49A, K62R, K109M
